Measured values reported in PMC4026322.

Experiment: immunofluorescence in HEK293 cells (data not shown)
Settings: glycan lost; control: wild type

B1: ABCC6: N15D (protein)
parent chain: MAAPAEPCAGQGVWNQTEPEPAATSLLSLCFLRTAGVWVPPMYLWVLGPIYLLFIHHHGRGYLRMSPLFKAKMVLGFALIVLCTSSVAVALWKIQQGTPEAPEFLIHPTVWLTTMSFAVFLIHTERKKGVQSSGVLFGYWLLCFVLPATNAAQQASGAGFQSDPVRHLSTYLCLSLVVAQFVLSCLADQPPFFPEDPQQSNPCPETGAAFPSKATFWWVSGLVWRGYRRPLRPKDLWSLGRENSSEELVSRLEKEWMRNRSAARRHNKAIAFKRKGGSGMKAPETEPFLRQEGSQWRPLLKAIWQVFHSTFLLGTLSLIISDVFRFTVPKLLSLFLEFIGDPKPPAWKGYLLAVLMFLSACLQTLFEQQNMYRLKVLQMRLRSAITGLVYRKVLALSSGSRKASAVGDVVNLVSVDVQRLTESVLYLNGLWLPLVWIVVCFVYLWQLLGPSALTAIAVFLSLLPLNFFISKKRNHHQEEQMRQKDSRARLTSSILRNSKTIKFHGWEGAFLDRVLGIRGQELGALRTSGLLFSVSLVSFQVSTFLVALVVFAVHTLVAENAMNAEKAFVTLTVLNILNKAQAFLPFSIHSLVQARVSFDRLVTFLCLEEVDPGVVDSSSSGSAAGKDCITIHSATFAWSQESPPCLHRINLTVPQGCLLAVVGPVGAGKSSLLSALLGELSKVEGFVSIEGAVAYVPQEAWVQNTSVVENVCFGQELDPPWLERVLEACALQPDVDSFPEGIHTSIGEQGMNLSGGQKQRLSLARAVYRKAAVYLLDDPLAALDAHVGQHVFNQVIGPGGLLQGTTRILVTHALHILPQADWIIVLANGAIAEMGSYQELLQRKGALMCLLDQARQPGDRGEGETEPGTSTKDPRGTSAGRRPELRRERSIKSVPEKDRTTSEAQTEVPLDDPDRAGWPAGKDSIQYGRVKATVHLAYLRAVGTPLCLYALFLFLCQQVASFCRGYWLSLWADDPAVGGQQTQAALRGGIFGLLGCLQAIGLFASMAAVLLGGARASRLLFQRLLWDVVRSPISFFERTPIGHLLNRFSKETDTVDVDIPDKLRSLLMYAFGLLEVSLVVAVATPLATVAILPLFLLYAGFQSLYVVSSCQLRRLESASYSSVCSHMAETFQGSTVVRAFRTQAPFVAQNNARVDESQRISFPRLVADRWLAANVELLGNGLVFAAATCAVLSKAHLSAGLVGFSVSAALQVTQTLQWVVRNWTDLENSIVSVERMQDYAWTPKEAPWRLPTCAAQPPWPQGGQIEFRDFGLRYRPELPLAVQGVSFKIHAGEKVGIVGRTGAGKSSLASGLLRLQEAAEGGIWIDGVPIAHVGLHTLRSRISIIPQDPILFPGSLRMNLDLLQEHSDEAIWAALETVQLKALVASLPGQLQYKCADRGEDLSVGQKQLLCLARALLRKTQILILDEATAAVDPGTELQMQAMLGSWFAQCTVLLIAHRLRSVMDCARVLVMDKGQVAESGSPAQLLAQKGLFYRLAQESGLV
  localisation_or_trafficking: no change
